In patent US20240398911A1 (BOARD OF THE TRUSTEES OF THE UNIVERSITY OF ILLINOIS, published 2024):
Like-named read-outs stand apart in the source and are kept apart here.

Columns and labels:
[1] = target: full length S of SARS-CoV-2 (untagged, a.a. 1-1273) expressed on Expi293F cells (SARS-CoV-2, UniProt P0DTC2 16-1273)
[2] = target: T1, RBD (a.a. 333-529) of SARS-CoV-2 S with 8 histidine tag (SARS-CoV-2, UniProt P0DTC2 333-529)
[3] = target: S protein of SARS-CoV-1 expressed on Expi293F cells (SARS-CoV-1, UniProt P59594 14-1255); assay: flow cytometry; Expi293F cells expressing S of SARS-CoV-1; normalized units, N=3
[4] = target: T1, RBD (a.a. 333-529) of SARS-CoV-2 S with …; remark: listed apart in the source
[5] = target: T1, RBD (a.a. 333-529) of SARS-CoV-2 S with …; assay: BLI, sACE22-IgG1 immobilized, RBD-8h analyte

B1: sACE2.v2 with 8 histidine tag (receptor)
chain: STIEEQAKYFLDKFNHEAEDLFYQSSLASWNYNTNITEENVQNMNNAGDKWSAFLKEQSTTAQMYPLQEIQNLTVKLQLQALQQNGSSVLSEDKSKRLNTILNTMSTIYSTGKVCNPDNPQECLLLEPGLNEIMANSLDYNERLWAWESWRSEVGKQLRPLYEEYVVLKNEMARANHYEDYGDYWRGDYEVNGVDGYDYSRGQLIEDVEHTFEEIKPLYEHLHAYVRAKLMNAYPSYISPIGCLPAHLLGDMWGRFWTNLYSLTVPFGQKPNIDVTDAMVDQAWDAQRIFKEAEKFFVSVGLPNMTQGFWEYSMLTDPGNVQKAVCHPTAWDLGKGDFRILMCTKVTMDDFLTAHHEMGHIQYDMAYLAQPFLLRNGANEGFHEAVGEIMSLSAATPKHLKSIGLLSPDFQEDNETEINFLLKQALTIVGTLPFTYMLEKWRWMVFKGEIPKDQWMKKWWEMKREIVGVVEPVPHDETYCDPASLFHVSNDYSFIRYYTRTLYQFQFQEALCQAAKHEGPLHKCDISNSTEAGQKLFNMLRLGKSEPWTLALENVVGAKNMNVRPLLNYFEPLFTWLKDQNKNSFVGWSTDWSPYADGSGHHHHHHHH
EC50 (read off the curve) [1]: ~10 nM | IC50 (read off the curve) [2]: ~6 nM

B2: REGN10933 (casirivimab) (antibody, V domains shown)
VH: QVQLVESGGGLVKPGGSLRLSCAASGFTFSDYYMSWIRQAPGKGLEWVSYITYSGSTIYYADSVKGRFTISRDNAKSSLYLQMNSLRAEDTAVYYCARDRGTTMVPFDYWGQGTLVTVSS
VL: DIQMTQSPSSLSASVGDRVTITCQASQDITNYLNWYQQKPGKAPKLLIYAASNLETGVPSRFSGSGSGTDFTFTISGLQPEDIATYYCQQYDNLPLTFGGGTKVEIKR
binding result [3]: no binding (tested: 70 nM)

B3: dimeric sACE22.v2.4 with 8 histidine tag (receptor)
chain: STIEEQAKYFLDKFNHEAEDLFYQSSLASWNYNTNITEENVQNMNNAGDKWSAFLKEQSTTAQMYPLQEIQNLTVKLQLQALQQNGSSVLSEDKSKRLNTILNTMSTIYSTGKVCNPDNPQECLLLEPGLNEIMANSLDYNERLWAWESWRSEVGKQLRPLYEEYVVLKNEMARANHYEDYGDYWRGDYEVNGVDGYDYSRGQLIEDVEHTFEEIKPLYEHLHAYVRAKLMNAYPSYISPIGCLPAHLLGDMWGRFWTNLYSLTVPFGQKPNIDVTDAMVDQAWDAQRIFKEAEKFFVSVGLPNMTQGFWEYSMLTDPGNVQKAVCHPTAWDLGKGDFRILMCTKVTMDDFLTAHHEMGHIQYDMAYAAQPFLLRNGANEGFHEAVGEIMSLSAATPKHLKSIGLLSPDFQEDNETEINFLLKQALTIVGTLPFTYMLEKWRWMVFKGEIPKDQWMKKWWEMKREIVGVVEPVPHDETYCDPASLFHVSNDYSFIRYYTRTLYQFQFQEALCQAAKHEGPLHKCDISNSTEAGQKLFNMLRLGKSEPWTLALENVVGAKNMNVRPLLNYFEPLFTWLKDQNKNSFVGWSTDWSPYADQSIKVRISLKSALGDKAYEWNDNEMYLFRSSVAYAMRQYFLKVKNQMILFGEEDVRVANLKPRISFNFFVTAPKNVSDIIPRTEVEKAIRMSRSRINDAFRLNDNSLEFLGIQPTLGGSGHHHHHHHH
IC50 (read off the curve) [4]: ~4 nM

B4: dimeric sACE22.v2 fused to the Fc of human IgG1 (Fc fusion)
chain: STIEEQAKYFLDKFNHEAEDLFYQSSLASWNYNTNITEENVQNMNNAGDKWSAFLKEQSTTAQMYPLQEIQNLTVKLQLQALQQNGSSVLSEDKSKRLNTILNTMSTIYSTGKVCNPDNPQECLLLEPGLNEIMANSLDYNERLWAWESWRSEVGKQLRPLYEEYVVLKNEMARANHYEDYGDYWRGDYEVNGVDGYDYSRGQLIEDVEHTFEEIKPLYEHLHAYVRAKLMNAYPSYISPIGCLPAHLLGDMWGRFWTNLYSLTVPFGQKPNIDVTDAMVDQAWDAQRIFKEAEKFFVSVGLPNMTQGFWEYSMLTDPGNVQKAVCHPTAWDLGKGDFRILMCTKVTMDDFLTAHHEMGHIQYDMAYLAQPFLLRNGANEGFHEAVGEIMSLSAATPKHLKSIGLLSPDFQEDNETEINFLLKQALTIVGTLPFTYMLEKWRWMVFKGEIPKDQWMKKWWEMKREIVGVVEPVPHDETYCDPASLFHVSNDYSFIRYYTRTLYQFQFQEALCQAAKHEGPLHKCDISNSTEAGQKLFNMLRLGKSEPWTLALENVVGAKNMNVRPLLNYFEPLFTWLKDQNKNSFVGWSTDWSPYADQSIKVRISLKSALGDKAYEWNDNEMYLFRSSVAYAMRQYFLKVKNQMILFGEEDVRVANLKPRISFNFFVTAPKNVSDIIPRTEVEKAIRMSRSRINDAFRLNDNSLEFLGIQPTLGGS
Kd [5]: 0.2 nM | koff [5]: 0.00014 s⁻¹ | kon [5]: 580000 M⁻¹ s⁻¹

B5: REGN10987 (imdevimab) (antibody, V domains shown)
VH: QVQLVESGGGVVQPGRSLRLSCAASGFTFSNYAMYWVRQAPGKGLEWVAVISYDGSNKYYADSVKGRFTISRDNSKNTLYLQMNSLRTEDTAVYYCASGSDYGDYLLVYWGQGTLVTVSS
VL: QSALTQPASVSGSPGQSITISCTGTSSDVGGYNYVSWYQQHPGKAPKLMIYDVSKRPSGVSNRFSGSKSGNTASLTISGLQSEDEADYYCNSLTSISTWVFGGGTKLTVLG
binding result [3]: no binding (tested: 70 nM)
